This is an account of results in patent publication US8580258 (DEUTSCHES KREBSFORSCHUNGSZENTRUM STIFTUNG DES OFFENTLICHEN …, dated 2013).

The target in test [1] is streptavidin (UniProt P22629 37-163, limits assumed). Kind of test: ELISA, plate coated with streptavidin at 5 µg/ml, bacterial supernatants of 8 clones, anti-human kappa HRP conjugate, TMB. As for the experimental part: Three rows of a 96 well plate were coated with 100 μl L1 antigen comprising the extracellolar domain of the L1 protein fused to an Fc fragment (5 μg/ml) in PBS for 1 hr at room temperature. A further three rows were coated with streptavidin (5 μg/ml) in PBS as a control.
streptavidin, sequence (P22629 37-163 limits assumed): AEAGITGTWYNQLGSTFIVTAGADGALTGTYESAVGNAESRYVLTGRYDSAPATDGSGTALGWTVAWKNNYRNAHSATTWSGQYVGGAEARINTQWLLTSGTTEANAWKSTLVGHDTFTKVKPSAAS
The 96 well plate was washed four times with PBS 0.1% tween followed by the addition of 100 μl of anti-human kappa light chains bound and free antibody HRP conjugate (Sigma A7164) 1:5000 dilution in PBS 1% BSA. The conjugate was incubated for 1 hr at room temperature followed by five washes with PBS 0.1% tween.
The ELISA was developed by the addition of TMB 2-Component Microwell Peroxidase Substrate Kit (Kirkegaard and Perry Laboratories Inc., USA) according to the manufacturer's protocol. At least four L1 binding clones have been observed for each of three single chain antibody versions.

For test [2], the target named is T1, recombinant L1-Fc fusion protein (human L1-Fc protein comprising the ectodomain of L1) (human, UniProt P32004 20-1120).
T1 construct: extracellular domain; also called L-Fc; L1 antigen; not shown: Fc fragment
T1 sequence (P32004 20-1120): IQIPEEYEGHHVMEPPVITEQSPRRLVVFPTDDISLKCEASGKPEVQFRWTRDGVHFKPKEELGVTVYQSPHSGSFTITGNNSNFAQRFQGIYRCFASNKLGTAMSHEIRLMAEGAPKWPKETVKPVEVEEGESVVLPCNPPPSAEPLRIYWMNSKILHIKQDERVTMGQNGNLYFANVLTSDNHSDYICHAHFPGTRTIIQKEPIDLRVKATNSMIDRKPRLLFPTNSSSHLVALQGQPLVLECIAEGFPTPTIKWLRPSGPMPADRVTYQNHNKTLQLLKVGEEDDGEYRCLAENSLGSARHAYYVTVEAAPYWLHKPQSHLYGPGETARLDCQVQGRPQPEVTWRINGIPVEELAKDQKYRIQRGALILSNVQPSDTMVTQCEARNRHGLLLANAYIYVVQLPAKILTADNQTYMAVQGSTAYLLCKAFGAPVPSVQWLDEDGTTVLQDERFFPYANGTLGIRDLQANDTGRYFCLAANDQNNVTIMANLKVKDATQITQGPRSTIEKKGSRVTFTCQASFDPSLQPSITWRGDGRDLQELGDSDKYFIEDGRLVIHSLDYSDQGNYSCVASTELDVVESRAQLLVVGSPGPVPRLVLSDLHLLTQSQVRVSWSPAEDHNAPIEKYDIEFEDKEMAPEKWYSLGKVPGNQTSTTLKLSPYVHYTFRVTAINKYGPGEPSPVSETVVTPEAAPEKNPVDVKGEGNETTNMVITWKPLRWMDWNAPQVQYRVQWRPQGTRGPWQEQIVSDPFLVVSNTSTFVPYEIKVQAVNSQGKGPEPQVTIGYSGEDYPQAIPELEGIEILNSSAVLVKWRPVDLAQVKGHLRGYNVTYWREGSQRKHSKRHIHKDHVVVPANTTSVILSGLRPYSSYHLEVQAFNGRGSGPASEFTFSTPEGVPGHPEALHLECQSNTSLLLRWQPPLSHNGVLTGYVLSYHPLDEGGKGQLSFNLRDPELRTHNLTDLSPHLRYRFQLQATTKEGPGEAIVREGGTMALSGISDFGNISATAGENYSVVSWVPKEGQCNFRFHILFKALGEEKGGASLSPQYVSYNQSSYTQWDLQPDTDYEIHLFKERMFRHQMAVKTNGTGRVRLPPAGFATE
Kind of test: Biacore SPR, L1-Fc coupled to CM5 chip, antibody as analyte 6-3333 nM.

Test [3] deals with T1, recombinant L1-Fc fusion protein (human …). Kind of test: Biacore SPR, L1-Fc on CM5 chip.

B1: L1-9.3Hu single chain antibody (humanized L1-9.3Hu scFv fused to human c kappa constant region) (scFv)
scFv: DIQMTQSPSSLSASVGDRVTITCRASQDISNYLNWYQQKPGKAPKLLIYYTSRLHSGVPSRFSGSGSGTDYTFTISSLQPEDFATYFCQQGNTLPWTFGGGTKLEIKRTSGPGDGGKGGPGKGPGGEGTKGTGPGGEVQLVQSGGGLVQSGGSLRLSCRASGYTFTRYWMLWVRQRPGHGLEWVGEINPRNDRTNYNEKFKTRFTISVDRSKSTAYLQMDSLRAEDTAVYFCALGGGYAMDYWGQGTLVTVSSGGAAAAPSVFIFPPSDEQLKSGTASVVCLLNNFYPREAKVQWKVDNALQSGNSQESVTEQDSKDSTYSLSSTLTLSKADYEKHKVYACEVTHQGLSSPVTKSFNRGESHHHHHH
notes: The expressed portion may include the pelB leader
Take B1: the binding result in test [1] is “no binding”.

B2: L1-9.3Hu3 single chain antibody (humanized L1-9.3Hu3 scFv fused to human c kappa constant region) (scFv)
scFv: DIQMTQSPSSLSASVGDRVTITCRASQDISNYLNWYQQKPGKAPKLLIYYTSRLHSGVPSRFSGSGSGTDYTLTISSLQPEDFATYFCQQGNTLPWTFGGGTKLEIKRTSGPGDGGKGGPGKGPGGEGTKGTGPGGEVQLVQSGGGLVQSGGSLRLSCRASGYTFTRYWMLWVRQRPGKGLEWVAEINPRNDRTNYNEKFKTRFTISVDRSKNTLYLQMDSLRAEDTAVYFCALGGGYAMDYWGQGTLVTVSSGGAAAAPSVFIFPPSDEQLKSGTASVVCLLNNFYPREAKVQWKVDNALQSGNSQESVTEQDSKDSTYSLSSTLTLSKADYEKHKVYACEVTHQGLSSPVTKSFNRGESHHHHHH
notes: The expressed portion may include the pelB leader; also called L1-9Hu3
B2: the binding result in test [1] is “no binding”.

B3: L1-9.3 single chain antibody (murine L1-9.3 scFv fused to human c kappa constant region) (scFv)
scFv: DIQMTQTTSSLSAFLGDRVTISCRASQDISNYLNWYQQKPDGTVKLLIYYTSRLHSGVPSRFSGSGSGTDYSLTISNLEQEDFATYFCQQGNTLPWTFGGGTKLEIKRTSGPGDGGKGGPGKGPGGEGTKGTGPGGQVQLQQPGAELVKSGASVNLSCRASGYTFTRYWMLWVRQRPGHGLEWVGEINPRNDRTNYNEKFKTKATLTVDRSSSTAYMQLTSLTSEDSAVYFCALGGGYAMDYWGQGTSVTVSSGGAAAAPSVFIFPPSDEQLKSGTASVVCLLNNFYPREAKVQWKVDNALQSGNSQESVTEQDSKDSTYSLSSTLTLSKADYEKHKVYACEVTHQGLSSPVTKSFNRGESHHHHHH
notes: The expressed portion may include the pelB leader, which is cleaved off
In the case of B3, in test [1], the binding result is listed as “no binding”.

B4: humanised antibody L1-hu3 (antibody, V domains shown)
VH: EVQLVQSGGGLVQSGGSLRLSCRASGYTFTRYWMLWVRQRPGKGLEWVAEINPRNDRTNYNEKFKTRFTISVDRSKNTLYLQMDSLRAEDTAVYFCALGGGYAMDYWGQGTLVTVSS
VL: DIQMTQSPSSLSASVGDRVTITCRASQDISNYLNWYQQKPGKAPKLLIYYTSRLHSGVPSRFSGSGSGTDYTLTISSLQPEDFATYFCQQGNTLPWTFGGGTKLEIK
Take B4: in test [2], the Kd came to 81 pM, the dissociation rate constant (koff) came out at 6.5e-05 s⁻¹ and the kon is 800000 M⁻¹ s⁻¹.

B5: monoclonal antibody L1-9.3, produced by the hybridoma cell deposited under DSMZ ACC2841 (antibody, V domains shown)
VH: QVQLQQPGAELVKSGASVNLSCRASGYTFTRYWMLWVRQRPGHGLEWVGEINPRNDRTNYNEKFKTKATLTVDRSSSTAYMQLTSLTSEDSAVYFCALGGGYAMDYWGQGTSVTVSS
VL: DIQMTQTTSSLSAFLGDRVTISCRASQDISNYLNWYQQKPDGTVKLLIYYTSRLHSGVPSRFSGSGSGTDYSLTISNLEQEDFATYFCQQGNTLPWTFGGGTKLEIK
For B5, in test [2], the Kd turned out to be 85 pM, the off-rate (koff) was 2.2e-05 s⁻¹ and the kon was 260000 M⁻¹ s⁻¹. For the same molecule, in test [3], the Kd stood at 85 pM, the koff worked out at 2.2e-05 s⁻¹ and the kon is 260000 M⁻¹ s⁻¹.
